In patent US11505576B2, “Polypeptides based on a scaffold” (AFFIBODY AB, priority 2018, dated 2022):

What was measured:
[1] = target: T1, IL-6 (Homo sapiens, UniProt P05231); experiment: Kinetic analysis using surface plasmon resonance (Biacore T200), immobilized IL-6; type: binding
T1 construct: purchased R&D Systems 206-IL-200/CF
Method: (§1) Kinetic constants (ka and kd) and affinities (KD) were determined for His6-tagged Y variants using a Biacore T200 instrument (GE Healthcare). Target proteins C4, IL-6 and insulin, respectively, were immobilized in separate flow cells on the carboxylated dextran layer of different CM5 chip surfaces (GE Healthcare). Immobilization was performed using amine coupling chemistry according to the manufacturer's protocol and PBS pH 7.4 supplemented with 0.1 Tween20 (PBST 0.1%) as running buffer. The ligand immobilization levels on the surfaces were 3280-8830 RU for C4, 495-1184 RU for IL-6, and 270-282 RU for insulin. One flow cell surface on each chip was activated and deactivated for use as blank during analyte injections. In the kinetic experiment, PBST 0.1% was used as running buffer at a flow rate of 30 μl/min. The analytes, i.e. Y variants, were each diluted in PBST 0.1 buffer at concentrations of 1000, 500, 100, 50 and 10 nM and injected for 5 min, followed by dissociation in running buffer for 3 min. After dissociation, the surfaces were regenerated with one injection of 30 μl 10 mM HCl. Kinetic constants were calculated from the sensorgrams using the Langmuir 1:1 model of Biacore T200 Evaluation software 2.0 (GE Healthcare).
(§2) Produced Y variants were subjected to CD and SPR analyses according to the methods described in Example 1.
(§3) Produced Y variants were subjected to CD and SPR analyses according to the methods described in Example 1. In addition, CD spectra of selected IL-6 binding variants were also recorded at 60, 70, 80 and 90° C.
The Y variants were cloned, produced and characterized according to the general methods described in Example 1. Produced Y variants with point mutations were subjected to CD and SPR analyses as described in Example 1. In addition, CD spectra of the IL-6 binding variants were also recorded at 60, 70, 80 and 90° C.

[2] = Circular dichroism spectroscopy analysis (CD spectra, variable temperature measurement, refolding); type: physicochemical; conditions: for α-helical content / ability to fold into an α-helical structure: CD spectrum at 20° C.
In short: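 Y variants at 0.5 mg/ml in PBS were scanned from 250 to 195 nm at 20° C. in a 1 mm cell. Tm came from the 221 nm signal during heating from 20 to 90° C. at 5° C./min, and a second 20° C. spectrum after heating assessed refolding. Selected IL-6 binders were also recorded at 60, 70, 80 and 90° C.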

[3] = target: C4; experiment: Kinetic analysis using surface plasmon resonance (Biacore T200), immobilized C4; type: binding; conditions: Table 7; MGSSHHHHHHGSS-[Y#####]-A
Method: as §1, §2
The Y variants were cloned, produced and characterized according to the general methods described in Example 1. Produced Y variants with point mutations and/or N-terminal or C-terminal extensions were subjected to CD and SPR analyses as described in Example 1.
as §3

[4] = Fraction of soluble product on expression in E. coli, estimated from SDS-PAGE; type: physicochemical; conditions: MGSSHHHHHHGSS-[Y#####]-A; for Estimated soluble fraction: Table 7, Ylib002Naive.I selection; for Est soluble fraction: Table 9, mutation study 5
Method: E. coli T7E2 cells were transformed with plasmids containing the gene fragment of each respective Y variant. The resulting recombinant strains were generally cultivated in media supplemented with 50 μg/ml kanamycin at 30-37° C. in 50 ml scale using the EnPresso protocol (Enpresso GmbH). In order to induce protein expression, isopropyl-β-D-1-thiogalactopyranoside (IPTG) was added to a final concentration of 0.5 mM at an optical density at 600 nm (OD600) of approximately 10. After induction, the cultures were incubated for 16 h. The cells were harvested by centrifugation. Alternatively, the culture was performed at 37° C. in 980 ml of TSB-YE medium (tryptic soy broth 30 g/l supplemented with yeast extract 5 g/l) supplemented with 50 μg/ml kanamycin, and protein expression induced with 0.2 mM IPTG at OD600=2, followed by incubation for 5 h before harvesting of the cells by centrifugation. The total yield as well as the fraction of soluble and insoluble product of the respective Y variant was estimated based on SDS-PAGE analysis.

[5] = target: T2, insulin (Homo sapiens, UniProt P01308); experiment: Kinetic analysis using surface plasmon resonance (Biacore T200), immobilized insulin; type: binding; conditions: Table 9, mutation study 5; MGSSHHHHHHGSS-[Y#####]-A
T2 construct: purchased Roche 1376497
T2 sequence (P01308 25-54 limits assumed): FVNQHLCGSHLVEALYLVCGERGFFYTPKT
T2 sequence (P01308 90-110 limits assumed): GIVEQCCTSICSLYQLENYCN
In short: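 His6-tagged Y variants injected at 10–1000 nM over amine-coupled insulin (270–282 RU) in PBST 0.1%, pH 7.4, at 30 μl/min. Association 5 min, dissociation 3 min. ka, kd and KD derived from a Langmuir 1:1 fit.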

[6] = Table 2, His6-tagged Y variant, MGSSHHHHHHGSS-[Y#####]-ASGSVD
[7] = Table 2, Ylib001Naive.I selection, MGSSHHHHHHGSS-[Y#####]-ASGSVD, 0.5 mg/ml in PBS, 221 nm, 20-90° C.
[8] = Table 7, MGSSHHHHHHGSS-[Y#####]-A
[9] = Table 9, mutation study 5, MGSSHHHHHHGSS-[Y#####]-A

T1 sequence (P05231 30-212): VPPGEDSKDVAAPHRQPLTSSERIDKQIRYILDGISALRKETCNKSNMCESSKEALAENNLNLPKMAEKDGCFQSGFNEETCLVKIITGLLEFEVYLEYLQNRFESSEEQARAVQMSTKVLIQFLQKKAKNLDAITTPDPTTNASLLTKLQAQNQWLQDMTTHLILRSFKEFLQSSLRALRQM

Substance	Estimated soluble fraction [4]	Kd [1, 8]	ka [1, 8]	kd [1, 8]	Kd [1, 9]	ka [1, 9]	kd [1, 9]	Est soluble fraction [4]	other results
Y00035: IL-6 binding Y variant from Ylib001Naive.I, SEQ ID NO:50 (LAEAKEAANAELDSYGVQANSIEAIEQGLFVEVVELLKELILAALP; Engineered IL-6 binding Y variant)	–	–	–	–	–	–	–	–	Kd [1, 6]: 360 nM; α-helical content / ability to fold into an α-helical structure [2]: limited ability; Tm [2, 7]: 60 °C
Y00076: IL-6 binding Y variant from Ylib001Naive.I, SEQ ID NO:61 (LAEAKEAALAELDSKGIEEKSISEIEAGLWVEVVELLKESILAVLP; Engineered IL-6 binding Y variant)	–	–	–	–	–	–	–	–	Kd [1, 6]: 430 nM; α-helical content / ability to fold into an α-helical structure [2]: limited ability; Tm [2, 7]: 47 °C
Y00792: C4 binding Y variant from Ylib002Naive.I, SEQ ID NO:32 (LAEAKEAAIAELDSKGVGADLIKKIQQASSVEGVQFWKQEILAQLPA; Engineered C4 binding Y variant)	100%	–	–	–	–	–	–	–	Kd [3]: 62 nM; ka [3]: 27000 M⁻¹ s⁻¹; kd [3]: 0.0017 s⁻¹; Tm [2, 8]: 58 °C
Y02374: IL-6 binding Y variant from Ylib002Naive.I, SEQ ID NO:72 (LAEAKEAAIAELDSKGVGAAEIKRIQAAELVEIVQLLKQAILAVLPA; Engineered IL-6 binding Y variant)	100%	120 nM	14000 M⁻¹ s⁻¹	0.0017 s⁻¹	–	–	–	–	–
Y02415: IL-6 binding Y variant from Ylib002Naive.I, SEQ ID NO:74 (LAEAKEAAIAELDSKGVGAGDIKDIQDALLVEIVQLLKQAILAVLPA; Engineered IL-6 binding Y variant)	100%	160 nM	9700 M⁻¹ s⁻¹	0.0015 s⁻¹	–	–	–	–	–
Y02444: IL-6 binding Y variant from Ylib002Naive.I, SEQ ID NO:75 (LAEAKEAAIAELDSKGVGAVEIKQIQEALLVEIVQLLKQAILAVLPA; Engineered IL-6 binding Y variant)	100%	61 nM	90000 M⁻¹ s⁻¹	0.0055 s⁻¹	–	–	–	–	Structure at elevated temperature ([2]; CD spectra recorded at 60, 70, 80 and 90° C.): partial structure also at temperatures up to 90 °C
Y02447: IL-6 binding Y variant from Ylib002Naive.I, SEQ ID NO:76 (LAEAKEAAIAELDSKGVGAHGIKEIQDAILVEIVQLLKQAILAALPA; Engineered IL-6 binding Y variant)	100%	160 nM	11000 M⁻¹ s⁻¹	0.0017 s⁻¹	–	–	–	–	–
Y02465: IL-6 binding Y variant from Ylib002Naive.I, SEQ ID NO:78 (LAEAKEAAIAELDSKGVGANHIKAIQHAQFVEIVQLLKQAILAVLPA; Engineered IL-6 binding Y variant)	100%	270 nM	7500 M⁻¹ s⁻¹	0.0021 s⁻¹	–	–	–	–	–
Y02495: IL-6 binding Y variant from Ylib002Naive.I, SEQ ID NO:79 (LAEAKEAAIAELDSKGVGAEEIKEIQGAMLVEIVQLLKQAILAVLPA; Engineered IL-6 binding Y variant)	100%	240 nM	7100 M⁻¹ s⁻¹	0.0017 s⁻¹	–	–	–	–	–
Y02697: IL-6 binding Y variant, Y02444 with I9L, SEQ ID NO:81 (LAEAKEAALAELDSKGVGAVEIKQIQEALLVEIVQLLKQAILAVLPA; Engineered IL-6 binding Y variant)	–	–	–	–	150 nM	50000 M⁻¹ s⁻¹	0.009 s⁻¹	100%	–
Y02698: IL-6 binding Y variant, Y02444 with K15Y, SEQ ID NO:82 (LAEAKEAAIAELDSYGVGAVEIKQIQEALLVEIVQLLKQAILAVLPA; Engineered IL-6 binding Y variant)	–	–	–	–	120 nM	28000 M⁻¹ s⁻¹	0.0033 s⁻¹	100%	–
Y02699: IL-6 binding Y variant, Y02444 with Q26E, SEQ ID NO:83 (LAEAKEAAIAELDSKGVGAVEIKQIEEALLVEIVQLLKQAILAVLPA; Engineered IL-6 binding Y variant)	–	–	–	–	200 nM	19000 M⁻¹ s⁻¹	0.0029 s⁻¹	100%	–
Y02700: IL-6 binding Y variant, Y02415 with I9L, SEQ ID NO:84 (LAEAKEAALAELDSKGVGAGDIKDIQDALLVEIVQLLKQAILAVLPA; Engineered IL-6 binding Y variant)	–	–	–	–	62 nM	46000 M⁻¹ s⁻¹	0.0025 s⁻¹	100%	–
Y02701: IL-6 binding Y variant, Y02415 with K15Y, SEQ ID NO:85 (LAEAKEAAIAELDSYGVGAGDIKDIQDALLVEIVQLLKQAILAVLPA; Engineered IL-6 binding Y variant)	–	–	–	–	210 nM	21000 M⁻¹ s⁻¹	0.0036 s⁻¹	100%	–
Y02702: IL-6 binding Y variant, Y02415 with Q26E, SEQ ID NO:86 (LAEAKEAAIAELDSKGVGAGDIKDIEDALLVEIVQLLKQAILAVLPA; Engineered IL-6 binding Y variant)	–	–	–	–	440 nM	16000 M⁻¹ s⁻¹	0.007 s⁻¹	100%	–
Y02703: IL-6 binding Y variant, Y02444 with K15Y Q26E, SEQ ID NO:87 (LAEAKEAAIAELDSYGVGAVEIKQIEEALLVEIVQLLKQAILAVLPA; Engineered IL-6 binding Y variant)	–	–	–	–	120 nM	21000 M⁻¹ s⁻¹	0.0025 s⁻¹	100%	–
Y02715: insulin binding Y variant, Y00358 with K15Y Q26E, SEQ ID NO:155 (LAEAKEAAIAELDSYGVGAAKIKWIEDAKSVETVQFLKQAILAELPA; Engineered insulin binding Y variant)	–	–	–	–	–	–	–	100%	Kd [5]: 280 nM; ka [5]: 6700 M⁻¹ s⁻¹; kd [5]: 0.0019 s⁻¹; Tm [2, 9]: 61 °C
Y02716: insulin binding Y variant, Y00301 with K15Y Q26E, SEQ ID NO:156 (LAEAKEAAIAELDSYGVGARQIKWIEQAKSVEVVQWLKQAILADLPA; Engineered insulin binding Y variant)	–	–	–	–	–	–	–	100%	Kd [5]: 7.6 nM; ka [5]: 2.7e+07 M⁻¹ s⁻¹; kd [5]: 0.21 s⁻¹; Tm [2, 9]: 58 °C
Y02717: insulin binding Y variant, Y00310 with K15Y Q26E, SEQ ID NO:157 (LAEAKEAAIAELDSYGVGAYQIKFIEIAHTVEEVQLMKQAILADLPA; Engineered insulin binding Y variant)	–	–	–	–	–	–	–	100%	Kd [5]: 610 nM; ka [5]: 33000 M⁻¹ s⁻¹; kd [5]: 0.02 s⁻¹; Tm [2, 9]: 52 °C
